Measurements as given in patent US20240263208A1, “CYTOCHROME P450 ENZYME” (HYPHA DISCOVERY LTD., priority 2021, published 2024).
Numbering of substitutions follows the chain as printed. In names and notes the source's numbering stands.

B1: SeuC10M25: P450SeuC10 with T109F mutation, SEQ ID NO: 54 (protein)
chain: MKIGTTHLTRLRGLSMTELTDITGPAAQAETVAFPQDRTCPYHPPTGYDPLRDGRPLSRVTLYDGREVWLVTAQATARALLADPRLSTDRRRDGFPVPTPRFAAGRDRFLALLGLDDPEHHRQRRLLIPSFTLKRATAQRPWIQRIVDELLDAMIARGPVADLVSAFALPVPSMVICELLGVPYADHEFFEEQSRRLLRGPTGADTTDARDRLEAYLGDLIDAKAKEAEPGDGILDDLVHNRLRAGELDRSVLVSLAVILLVAGHETTANMISLGTYTLLQHPERLAELRADPSLLPAVVEELLRMLSIAEGLQRLALEDIEIDGITIRAGEGVLFSTSVINRDTAVYEDPDDLDFHRADRHHVAFGFGIHQCLGQNLARAELEIALGSLFTRLPGLRLAAPAEEIPFKPGDTVQGMLELPVTW
modifications: SeuC10M25
B2: SeuC10M20: P450SeuC10 with L198W mutation, SEQ ID NO: 44 (protein)
chain: B1 chain with F109T, L198W
modifications: SeuC10M20
B3: M52: P450SeuC10 with T109D mutation, SEQ ID NO: 122 (protein)
chain: B1 chain with F109D
modifications: SeuC10M52
B4: M31: P450SeuC10 with T109F and I259A double mutations, SEQ ID NO: 128 (protein)
chain: B1 chain with I259A
modifications: SeuC10M31
B5: SeuC10M9: P450SeuC10 with L198A mutation, SEQ ID NO: 22 (protein)
chain: B1 chain with F109T, L198A
modifications: SeuC10M9
B6: SeuC10M13: P450SeuC10 with L198F mutation, SEQ ID NO: 30 (protein)
chain: B1 chain with F109T, L198F
modifications: SeuC10M13

Columns and labels:
Format in all cases: biochemical
[1] = Oxidase activity testing, lyophilised recombinant P450/ferredoxin SeuF08/ferredoxin reductase SCF15A against ambroxide
Procedure: (§1) Lyophilised material of recombinant P450, ferredoxin and ferredoxin reductase proteins was made as described in Example 4 and reconstituted in high purity water to the original volume. Biocatalysis was performed with shaking incubation at 27° C. in the following conditions: 100 mM potassium phosphate pH 8.0, 5 mM MgCl2 (both present in the reconstituted enzyme preparation) and 0.1 mg/ml substrate compound such as ambroxide (Sigma-Aldrich, UK), carbamazepine (Sigma-Aldrich, UK), diclofenac (Sigma-Aldrich, UK), tivantinib (MedChemtronica, Sweden), clarithromycin (Tokyo Chemical Industry, Japan), sclareol (Sigma-Aldrich, UK), celecoxib (LC Laboratories, USA), buparvaquone (Sigma-Aldrich, UK), BIRB796 (MedChemExpress, USA), vanoxerine (CiVentiChem, USA), valsartan (Tokyo Chemical Industry, Japan), ruxolitinib (LC Laboratories, USA), perindopril (Selleckchem, USA), solifenacin (Key Organics, UK), 7-ethoxycoumarin (Tokyo Chemical Industry, Japan), tofacitinib (LC Laboratories, USA), ebastine (Key Organics, UK), efavirenz (Key Organics, UK), propanalol (Sigma-Aldrich, UK) and tolbutamide (Key Organics, UK).
(§2) Concentrations of P450, ferredoxin and ferredoxin reductase were as extracted (Example 4). Reactions were initiated by addition of 10× stock of cofactor mixture (50 mM G6P, 10 mM NADP+, 10 UN/ml G6PDH) to provide a final volume of e.g., 10 μl to 90 μl for 100 μl total reaction volumes. After 16-20 hours, reactions were extracted with an equal volume of acetonitrile, centrifuged to remove precipitated proteins and conversion assessed by UPLC-MS analysis.
(§3) UPLC Data were Obtained as Follows: • Column: Acquity UPLC BEH Shield RP18 1.7 μm 2.1 mm i.d. 50 mm length • Solvents: H2O, B: Acetonitrile, both with 0.1% Formic acid • Flow rate: 1.0 ml/min • Detector: Waters Acquity UPLC PDA (UV-Vis detection) and Waters Acquity UPLC QDA (MS)
(§4) To confirm the identities of reaction products where known, their chromatographic retention time, mass and ultraviolet spectra were compared with those of authentic metabolite standards.
Representative results for the % conversions of ambroxide to oxidised (+16 Da) products for single point mutants at position T109 are shown in Table 2 below.

[2] = Oxidase activity testing against sclareol; details: for Average % conversion: substrate Sclareol, UPLC-MS UV or MS peak areas
Procedure: as §1, §2, §3
(§5) Representative results for the % conversions of various substrates to products by enzymes with mutations at position T109 or L198 and double mutants at T109 and 1129/L198 are shown in Table 4 below.

[3] = Oxidase activity testing against celecoxib; details: substrate Celecoxib
Procedure: as §1, §2, §3, §5

[4] = Oxidase activity testing against buparvaquone; details: substrate Buparvaquone
Procedure: as §1, §2, §3, §5

[5] = Oxidase activity testing against BIRB796; details: substrate BIRB796
Procedure: as §1, §2, §3, §5

[6] = Oxidase activity testing against vanoxerine; details: substrate Vanoxerine
Procedure: as §1, §2, §3, §5

[7] = Oxidase activity testing against valsartan; details: substrate Valsartan
Procedure: as §1, §2, §3, §5

[8] = Oxidase activity testing against ruxolitinib; details: substrate Ruxolitinib
Procedure: as §1, §2, §3, §5

[9] = Oxidase activity testing against perindopril; details: substrate Perindopril
Procedure: as §1, §2, §3, §5

[10] = Oxidase activity testing against solifenacin; details: substrate Solifenacin
Procedure: as §1, §2, §3, §5

[11] = Oxidase activity testing against 7-ethoxycoumarin; details: substrate 7-ethoxycoumarin
Procedure: as §1, §2, §3, §5

[12] = Oxidase activity testing against tofacitinib; details: substrate Tofacitinib
Procedure: as §1, §2, §3, §5

[13] = Oxidase activity testing against ebastine; details: for Average % conversion: substrate Ebastine
Procedure: as §1, §2, §3, §5

[14] = Oxidase activity testing against efavirenz; details: substrate Efavirenz
Procedure: as §1, §2, §3, §5

[15] = Oxidase activity testing against clarithromycin; details: for Average % conversion: substrate Clarithromycin
Procedure: as §1, §2, §3, §5

[16] = Oxidase activity testing against propanalol; details: substrate Propanalol
Procedure: as §1, §2, §3, §5

[17] = Oxidase activity testing against tolbutamide; details: substrate Tolbutamide
Procedure: as §1, §2, §3, §5

[18] = Oxidase activity testing against carbamazepine; details: for +16 Da (1.18 min) 253 m/z: 2-hydroxycarbamazepine; for +16 Da (1.18 min) 253 m/z / +16 Da (1.14 min) 253 m/z / Parent (1.31 min) 237 m/z: relative MS peak area; for +16 Da (1.14 min) 253 m/z: carbamazepine epoxide; for reaction products from carbamazepine (in words): new product at 1.18 minutes identified as 2-hydroxycarbamazepine, epoxide at 1.14 minutes; for Parent (1.31 min) 237 m/z: remaining carbamazepine, 0.1 mg/ml, 27° C., 16-20 hours; for Average % conversion: substrate carbamazepine, relative MS peak areas
Procedure: as §1, §2, §3, §4
Representative results for the % conversions of carbamazepine to oxidised (+16 Da) products for single point mutants at position L198 are shown in Table 3 below.

[19] = oxidised ambroxide product, relative MS peak area

Molecule	Average % conversion ([2]; Batch 1) [%]	Average % conversion ([3]; Batch 1) [%]	Average % conversion ([4]; Batch 1) [%]	Average % conversion ([5]; Batch 1) [%]	Average % conversion ([6]; Batch 1) [%]	Average % conversion ([7]; Batch 1) [%]	Average % conversion ([8]; Batch 1) [%]	Average % conversion ([9]; Batch 1) [%]	Average % conversion ([10]; Batch 1) [%]	Average % conversion ([11]; Batch 1) [%]	Average % conversion ([12]; Batch 1) [%]	Average % conversion ([13]; Batch 1) [%]	Average % conversion ([14]; Batch 1) [%]	Average % conversion ([15]; Batch 1) [%]	Average % conversion ([16]; Batch 1) [%]	Average % conversion ([17]; Batch 1) [%]	+16 Da (1.18 min) 253 m/z [18] [%]	+16 Da (1.14 min) 253 m/z [18] [%]	reaction products from carbamazepine (in words) [18]	Parent (1.31 min) 237 m/z [18] [%]	also measured
B1	55.7	10.4	19.4	13.9	58	15.5	79.8	23.5	2.9	17.5	21.4	12.7	1.5	0	0	28.2	–	–	–	–	+16 Da (1.50 min) 253 m/z [1, 19]: 52.0%; +16 Da (1.60 min) 253 m/z [1, 19]: 15.2%; +16 Da (2.04 min) 253 m/z [1, 19]: 13.9%; reaction products from ambroxide (in words) ([1]; products at 1.50, 1.61 and 2.04 minutes): highest yields of the products at 1.61 and 2.04 minutes; Ambroxide (2.22 min) 237 m/z ([1]; remaining substrate, relative MS peak area, 0.1 mg/ml ambroxide, 27° C., 16-20 hours): 18.9%; Average % conversion ([1]; substrate ambroxide, relative MS peak areas): 81.1%
B2	0	6.9	1.7	45.3	29.4	25	42.7	16.5	0.6	11.4	5.9	19.2	0	0	0	13.7	3.5	6.8	produce a new product	89.7	Average % conversion [18]: 10.3%
B3	–	–	–	–	–	–	–	–	–	–	–	–	–	–	–	–	–	–	–	–	Average % conversion ([2]; Batch 2): 25.4%; Average % conversion ([3]; Batch 2): 29.7%; Average % conversion ([4]; Batch 2): 24.8%; Average % conversion ([5]; Batch 2): 13%; Average % conversion ([6]; Batch 2): 65%; Average % conversion ([7]; Batch 2): 16.1%; Average % conversion ([8]; Batch 2): 87.7%; Average % conversion ([9]; Batch 2): 37.9%; Average % conversion ([10]; Batch 2): 17.2%; Average % conversion ([11]; Batch 2): 17.3%; Average % conversion ([12]; Batch 2): 38.2%; Average % conversion ([13]; Batch 2): 3.1%; Average % conversion ([14]; Batch 2): 0%; Average % conversion ([15]; Batch 2): 1%; Average % conversion ([16]; Batch 2): 0%; Average % conversion ([17]; Batch 2): 26.3%
B4	–	–	–	–	–	–	–	–	–	–	–	–	–	–	–	–	–	–	–	–	Average % conversion ([2]; Batch 2): 1.3%; Average % conversion ([3]; Batch 2): 0.4%; Average % conversion ([4]; Batch 2): 0%; Average % conversion ([5]; Batch 2): 0%; Average % conversion ([6]; Batch 2): 11.4%; Average % conversion ([7]; Batch 2): 0.6%; Average % conversion ([8]; Batch 2): 46.9%; Average % conversion ([9]; Batch 2): 14.6%; Average % conversion ([10]; Batch 2): 2.2%; Average % conversion ([11]; Batch 2): 2.9%; Average % conversion ([12]; Batch 2): 8.2%; Average % conversion ([13]; Batch 2): 0%; Average % conversion ([14]; Batch 2): 4.1%; new product at 3.12 minutes (3″-O-demethylclarithromycin) from clarithromycin ([15]; chromatographic analysis, FIGS. 5 and 6): not observed; Average % conversion ([15]; Batch 2): 0.7%; Average % conversion ([16]; Batch 2): 0%; Average % conversion ([17]; Batch 2): 2.9%
B5	75.2	2.6	1.2	10	23	6.9	55.1	15.7	0.8	10.7	6.2	25.1	3.1	0	0	14.7	1.1	15.8	produce a new product	83.1	Average % conversion [18]: 16.9%; conversion of sclareol compared to wild-type (in words) [2]: significantly increased conversion; conversion of ebastine compared to wild-type (in words) [13]: significantly increased conversion
B6	41.3	26.8	39.1	54.6	29.4	12	98.1	38.2	0.8	31.2	32.2	14.7	0	0	0	27.9	3.1	42.3	produce a new product	54.6	Average % conversion [18]: 45.4%
